Data as given in patent US12338277 (ROCKEFELLER UNIVERSITY, dated 2025).
Numbering of substitutions follows the chain as printed. Read-outs that look alike come from different tables or passages of the source.

B1: 10-1074 (antibody, V domains shown)
VH: QVQLQESGPGLVKPSETLSVTCSVSGDSMNNYYWTWIRQSPGKGLEWIGYISDRESATYNPSLNSRVVISRDTSKNQLSLKLNSVTPADTAVYYCATARRGQRIYGVVSFGEFFYYYSMDVWGKGTTVTVSS
VL: SYVRPLSVALGETARISCGRQALGSRAVQWYQHRPGQAPILLIYNNQDRPSGIPERFSGTPDINFGTRATLTISGVEAGDEADYYCHMWDSRSGFSWSFGGATRLTVL
B2: 10-847 (antibody, V domains shown)
VH: B1 VH with E55A
VL: B1 VL with R15S
B3: 10-1341 (antibody, V domains shown)
VH: B1 VH with K75T, K124R
VL: B1 VL
B4: 10-1074GM (antibody, V domains shown)
VH: B1 VH with Y32S, D53K, R54S, T58N, R100H, Y115T
VL: B1 VL
notes: also called 10-1074 glycomutant
B5: 10-410 (antibody, V domains shown)
VH: QVQLQESGPGLVKPPETLSLTCSVSGASVNDAYWSWIRQSPGKRPEWVGYVHHSGDTNYNPSLKRRVTFSLDTAKNEVSLKLVALTAADSAVYFCARALHGKRIYGIVALGELFTYFYMDVWGKGTTVTVSS
VL: SFVSVAPGQTARITCGEESLGSRSVIWYQQRPGQAPSLIIYNNNDRPSGIPERFSGSPGSTFGTTATLTITSVEAGDEADYYCHIWDSRRPTNWVFGEGTTLTVL

Legend:
[1] = molecular target: T1, YU-2 gp120 (HIV-1 (strain YU-2), UniProt P35961 32-498); assay: SPR, IgG over immobilised YU-2 gp120, 1:1 fit, apparent constant
T1 construct: domain: gp120; also called gp120WT; intact YU-2 gp120

[2] = molecular target: T1, YU-2 gp120; assay: ELISA, coated antigen, OD405 vs [IgG] (M)
[3] = molecular target: T1, YU-2 gp120; assay: ELISA, coated antigen, OD405 vs [IgG] (M); remark: listed apart in the source
[4] = molecular target: gp120NNT301-303AAA; assay: ELISA, coated antigen, OD405 vs [IgG] (M)
[5] = molecular target: T1, YU-2 gp120; assay: ELISA, coated antigen, OD405 vs [IgG] (M); remark: listed apart in the source
[6] = molecular target: gp120GD324-5AA; assay: ELISA, coated antigen, OD405 vs [IgG] (M)
[7] = molecular target: T1, YU-2 gp120; assay: ELISA, coated antigen, OD405 vs [IgG] (M); remark: listed apart in the source
[8] = molecular target: T1, YU-2 gp120; assay: ELISA, coated antigen, OD405 vs [IgG] (M); remark: listed apart in the source
[9] = molecular target: T1, YU-2 gp120; assay: ELISA, coated antigen, OD405 vs [IgG] (M); remark: listed apart in the source
[10] = molecular target: HIV-1 CNE19 envelope on pseudovirus (HIV-1 (strain CNE19)); assay: cell-based or functional assay
[11] = molecular target: HIV-1 62357_14_D3_4589 envelope on pseudovirus (HIV-1 (strain 62357_14_D3_4589)); assay: cell-based or functional assay
[12] = molecular target: T1, YU-2 gp120; assay: SPR, apparent KD on gp120, bar graph

Binder | Ka [1] [M⁻¹] | Kd [1] [nM] | koff [1] [s⁻¹] | EC50 (read off the curve) [2] [nM] | EC50 (read off the curve) [3] [nM] | EC50 (read off the curve) [4] [nM] | EC50 (read off the curve) [5] [nM] | binding result [6] | EC50 (read off the curve) [7] [nM] | EC50 (read off the curve) [8] [nM] | EC50 (read off the curve) [9] [nM] | IC50, TZM-bl neutralization [10] [µg/mL] | IC50, TZM-bl neutralization [11] [µg/mL] | fold difference of KD, wildtype vs glycomutant [12] [fold] | binding result [4]
B1 | 1.1e+08 | 9.5 | 0.00019 | ~0.3 | ~0.1 | ~0.1 | ~0.5 | binds | ~0.3 | ~0.7 | ~0.5 |  |  |  | 
B2 | 1.1e+08 | 8.9 | 0.00018 | ~0.2 | ~0.1 | ~0.1 | ~0.3 | binds | ~0.3 | ~0.4 | ~0.3 |  |  |  | 
B3 | 1.2e+08 | 8.2 | 0.00016 | ~0.4 | ~0.09 | ~0.09 | ~0.5 | binds | ~0.5 | ~0.6 | ~0.2 |  |  |  | 
B4 |  |  |  |  |  |  |  |  |  |  |  | 0.19 | 40.8 | 1.8 | 
B5 | 2.1e+07 | 47 | 0.0017 |  |  |  |  | binds |  |  |  |  |  |  | binds
